Results reported in patent US20210181204A1 (SYNGENTA PARTICIPATIONS, published 2021).
Numbering of substitutions follows the chain as printed. Names may count otherwise.

Assays:
[1] = biological target: T1, Cry1Ab insecticidal protein (Bacillus thuringiensis, UniProt P0A370 1-615); experiment: direct ELISA, coated protein, SA-AP, 405 nm
[2] = biological target: T2, mCry3A insecticidal protein (Bacillus thuringiensis subsp. …, UniProt P0A379 48-644, limits assumed); experiment: direct ELISA, coated protein, SA-AP, 405 nm
T2 construct: also called modified Cry3A
T2 sequence: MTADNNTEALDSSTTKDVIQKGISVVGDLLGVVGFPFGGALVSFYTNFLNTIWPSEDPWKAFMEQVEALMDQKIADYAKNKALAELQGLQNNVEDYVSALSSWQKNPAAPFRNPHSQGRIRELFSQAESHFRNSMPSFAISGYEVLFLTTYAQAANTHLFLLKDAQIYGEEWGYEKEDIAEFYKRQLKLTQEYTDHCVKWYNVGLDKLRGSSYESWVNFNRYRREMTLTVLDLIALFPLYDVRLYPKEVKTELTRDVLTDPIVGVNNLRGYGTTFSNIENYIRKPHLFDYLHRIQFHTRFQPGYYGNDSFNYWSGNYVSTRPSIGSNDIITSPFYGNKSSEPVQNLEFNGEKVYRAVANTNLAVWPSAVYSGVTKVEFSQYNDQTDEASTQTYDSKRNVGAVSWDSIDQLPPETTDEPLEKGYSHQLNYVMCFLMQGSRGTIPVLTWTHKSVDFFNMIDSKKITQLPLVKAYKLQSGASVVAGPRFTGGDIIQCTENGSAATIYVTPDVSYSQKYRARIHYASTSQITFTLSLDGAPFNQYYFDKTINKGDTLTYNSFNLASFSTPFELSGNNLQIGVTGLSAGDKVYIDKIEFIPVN

[3] = biological target: T3, Cry1Aa insecticidal protein (Bacillus thuringiensis subsp. aizawai, UniProt P0A367 12-1176); experiment: direct ELISA, coated protein, SA-AP, 405 nm
[4] = biological target: Cry1Ai insecticidal protein; experiment: direct ELISA, coated protein, SA-AP, 405 nm
[5] = biological target: Cry1Ab.1Ca insecticidal protein; experiment: direct ELISA, coated protein, SA-AP, 405 nm
[6] = biological target: T1, Cry1Ab insecticidal protein; experiment: sandwich ELISA: synNAPS on streptavidin plate, HRP-antibody detection; Cry1Ab 10 ng/ml
[7] = biological target: T2, mCry3A insecticidal protein; experiment: sandwich ELISA: synNAPS on streptavidin plate, HRP-antibody detection; mCry3A 60 ng/ml
[8] = biological target: T2, mCry3A insecticidal protein; experiment: affinity capture on synNAPS-13 streptavidin beads from corn leaf extract, eluate measured by ELISA
[9] = biological target: T2, mCry3A insecticidal protein; experiment: direct ELISA on coated mCry3A
[10] = biological target: T2, mCry3A insecticidal protein; experiment: direct ELISA: mCry3A coated at 1 ug/ml, RGS-His HRP detection
[11] = biological target: eCry3.1Ab hybrid insecticidal protein; experiment: direct ELISA, coated protein, SA-AP, 405 nm
[12] = biological target: T2, mCry3A insecticidal protein; experiment: direct ELISA: protein coated at 500 ng/ml, 10 nM tagged synNAPS with SA-AP
[13] = biological target: eCry3.1Ab hybrid insecticidal protein; experiment: as above
[14] = biological target: T3, Cry1Aa insecticidal protein; experiment: as above
[15] = biological target: Cry1Ai insecticidal protein; experiment: as above
[16] = biological target: T1, Cry1Ab insecticidal protein; experiment: as above
[17] = biological target: Cry1Ab.1Ca insecticidal protein; experiment: as above
[18] = biological target: T1, Cry1Ab insecticidal protein; experiment: direct binding ELISA with leaf extracts expressing synNAPS-13, A405
[19] = biological target: T2, mCry3A insecticidal protein; experiment: as above
[20] = biological target: eCry3.1Ab hybrid insecticidal protein; experiment: direct ELISA: eCry3.1Ab coated at 1 ug/ml, RGS-His HRP detection

B1: synNAPS-13tag ligand (designed binder)
chain: MRGSHHHHHHGSVKVKFKRWGEEKEVDTSKILHVLRVGKYVRFSYDDNGKLGAGYVTEKDAPKELLDMLARAEREKKLGSGLNDIFEAQKIEWH
modifications: in vivo biotinylation (E. coli BirA strain) on the C-terminal avidin-tag
notes: also called tagged synNAPS 13
B1: no binding (tested: 10 nM) [1]; no binding (tested: 10 nM) [2]; no binding (tested: 10 nM) [3]. For the same binder, the binding result [4] was “no binding (tested: 10 nM)”, the binding result [5] was “no binding (tested: 10 nM)” and the “Absorbance at protein concentration (ng/ml)” value (“Absorbance” below) [6] was 0 absorbance 450 nm. The “Absorbance” value [7] was 0 absorbance 450 nm and the “Quantity of Protein (ng/ml) eluted from synNAPS-13 beads” value [8] was 0 ng/mL.

B2: synNAPS9 variant T46A (designed binder)
chain: RGSHHHHHHGSMVKVKFAQGGEEKEVDTSKIYRVPRHGKIVFFMYDDNGKGGFGHVAEKDAPKELLDMLARAEREKK
B2 was tested, and the “binding affinity as percent of SEQ ID NO:17” value [9] was roughly 112% and the “Binding (OD 450 nm)” value [10] was 2.8 OD 450 nm.

B3: synNAPS-9tag ligand (designed binder)
chain: MRGSHHHHHHGSVKVKFAQGGEEKEVDTSKIYRVPRHGKIVFFMYDDNGKGGFGHVTEKDAPKELLDMLARAEREKKLGSGLNDIFEAQKIEWH
modifications: in vivo biotinylation (E. coli BirA strain) on the C-terminal avidin-tag
notes: also called NsynNAPS9; tagged synNAPS 9
B3: no binding (tested: 10 nM) [1]; no binding (tested: 10 nM) [11]; no binding (tested: 10 nM) [3]. The binding result [4] was “no binding (tested: 10 nM)”, the binding result [5] was “no binding (tested: 10 nM)” and the “Binding to Insecticidal Protein (read at 405 nm)” value (from here on “Binding to Insecticidal Protein”) [12] was 0.7 absorbance 405 nm. The “Absorbance” value [6] was 0 absorbance 450 nm and the “Absorbance” value [7] was 2 absorbance 450 nm.

B4: synNAPS-11tag ligand (designed binder)
chain: MRGSHHHHHHGSVKVKFGLGGEEKEVDTSKIRRVLRLGKLVSFTYDDNGKIGLGDVHEKDAPKELLDMLARAEREKKLGSGLNDIFEAQKIEWH
modifications: in vivo biotinylation (E. coli BirA strain) on the C-terminal avidin-tag
notes: also called tagged synNAPS 11
B4 was tested, and the binding result [1] was “no binding (tested: 10 nM)”, the binding result [5] was “no binding (tested: 10 nM)” and the “Binding to Insecticidal Protein” value [13] was 1.5 absorbance 405 nm. The “Binding to Insecticidal Protein” value [12] was 2.9 absorbance 405 nm, the “Binding to Insecticidal Protein” value [14] was 0.6 absorbance 405 nm and the “Binding to Insecticidal Protein” value [15] was 0.7 absorbance 405 nm.

B5: synNAPS-2tag ligand (designed binder)
chain: MRGSHHHHHHGSVKVKFKYKGEEKEVDTSKIVWIGRFGKSVYFRYDDNGKTGAGRVYEKDAPKELLDMLARAEREKKLGSGLNDIFEAQKIEWH
modifications: in vivo biotinylation (E. coli BirA strain) on the C-terminal avidin-tag
notes: also called tagged synNAPS 2
B5: no binding (tested: 10 nM) [11]; no binding (tested: 10 nM) [2]; no binding (tested: 10 nM) [3]. The “Binding to Insecticidal Protein” value [16] was 1.8 absorbance 405 nm, the “Binding to Insecticidal Protein” value [15] was 2.5 absorbance 405 nm and the “Binding to Insecticidal Protein” value [17] was 1 absorbance 405 nm. The “Absorbance” value [6] was 4 absorbance 450 nm and the “Absorbance” value [7] was 0 absorbance 450 nm.

B6: synNAPS-4tag ligand (designed binder)
chain: B5 chain with V32S, W33Y, I34V, G35Q, F37A, R44N, A53G, Y57F
modifications: in vivo biotinylation (E. coli BirA strain) on the C-terminal avidin-tag
notes: also called tagged synNAPS 4
B6: no binding (tested: 10 nM) [11]; no binding (tested: 10 nM) [2]; no binding (tested: 10 nM) [3]. The “Binding to Insecticidal Protein” value [16] was 1.75 absorbance 405 nm, the “Binding to Insecticidal Protein” value [15] was 2.6 absorbance 405 nm and the “Binding to Insecticidal Protein” value [17] was 0.75 absorbance 405 nm.

B7: synNAPS-5tag ligand (designed binder)
chain: MRGSHHHHHHGSVKVKFVLKGEEKEVDTSKITYVARYGKFVQFDYDDNGKFGAGVVLEKDAPKELLDMLARAEREKKLGSGLNDIFEAQKIEWH
modifications: in vivo biotinylation (E. coli BirA strain) on the C-terminal avidin-tag
notes: also called tagged synNAPS 5
B7: no binding (tested: 10 nM) [11]; no binding (tested: 10 nM) [2]; no binding (tested: 10 nM) [3]. For the same binder, the binding result [4] was “no binding (tested: 10 nM)”, the “Binding to Insecticidal Protein” value [16] was 1.1 absorbance 405 nm and the “Binding to Insecticidal Protein” value [17] was 1.6 absorbance 405 nm.

B8: synNAPS-13 ligand (designed binder)
chain: MVKVKFKRWGEEKEVDTSKILHVLRVGKYVRFSYDDNGKLGAGYVTEKDAPKELLDMLARAEREKK
In the case of B8, the binding result [18] is reported as “no binding”, the binding result [19] is reported as “no binding” and the “Binding (OD 450 nm)” value [20] is reported as 4.1 OD 450 nm.
